Source: patent US20130266574A1 (Regeneron, published 2013)

T1: full-length hANGPTL4 (amino acid residues 26-406 of SEQ ID NO:476) with a C-terminal hexa-histidine tag (human, UniProt Q9BY76 26-406)
T1 sequence: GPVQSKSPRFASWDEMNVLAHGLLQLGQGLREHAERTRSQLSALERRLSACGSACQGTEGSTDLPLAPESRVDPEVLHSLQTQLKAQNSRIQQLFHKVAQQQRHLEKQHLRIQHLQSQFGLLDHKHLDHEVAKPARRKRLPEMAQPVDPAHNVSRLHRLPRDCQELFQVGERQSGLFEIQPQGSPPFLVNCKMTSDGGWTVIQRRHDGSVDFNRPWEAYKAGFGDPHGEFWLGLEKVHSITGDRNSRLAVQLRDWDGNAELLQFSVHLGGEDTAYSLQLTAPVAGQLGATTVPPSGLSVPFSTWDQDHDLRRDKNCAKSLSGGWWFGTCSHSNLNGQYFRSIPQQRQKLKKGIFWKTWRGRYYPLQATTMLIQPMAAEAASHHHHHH

T2: amino acid residues 26-148 of human ANGPTL4 fused in-line to mouse IgG2a (hANGPTL4-mFc) (human)
T2 chain: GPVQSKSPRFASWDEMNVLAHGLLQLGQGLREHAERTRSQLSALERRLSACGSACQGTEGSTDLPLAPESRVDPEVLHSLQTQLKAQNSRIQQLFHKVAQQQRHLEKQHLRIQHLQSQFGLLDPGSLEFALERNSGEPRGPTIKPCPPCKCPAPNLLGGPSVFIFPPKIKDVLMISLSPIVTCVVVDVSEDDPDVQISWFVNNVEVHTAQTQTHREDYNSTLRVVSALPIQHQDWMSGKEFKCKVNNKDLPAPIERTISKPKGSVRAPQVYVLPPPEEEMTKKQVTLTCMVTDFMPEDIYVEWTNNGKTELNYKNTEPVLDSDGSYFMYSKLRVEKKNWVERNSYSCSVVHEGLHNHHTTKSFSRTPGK

T3: cynomolgus monkey ANGPTL4 N-terminal region (amino acid residues 26-148) with an N-terminal hexa-histidine tag (cynomolgus monkey, UniProt Q9BY76 26-148 (human entry))
T3 chain: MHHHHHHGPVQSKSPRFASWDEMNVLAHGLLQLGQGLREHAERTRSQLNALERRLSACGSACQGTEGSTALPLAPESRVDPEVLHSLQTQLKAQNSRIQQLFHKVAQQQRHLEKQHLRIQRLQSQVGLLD

T4: cynomolgus monkey ANGPTL4 N-terminal region (amino acid residues 1-130 of SEQ ID NO:490) with a C-terminal … (cynomolgus monkey (Macaca fascicularis), UniProt Q9BY76 26-130 (human entry))
T4 construct: also called MfANGPTL4(1-130)-His
T4 chain: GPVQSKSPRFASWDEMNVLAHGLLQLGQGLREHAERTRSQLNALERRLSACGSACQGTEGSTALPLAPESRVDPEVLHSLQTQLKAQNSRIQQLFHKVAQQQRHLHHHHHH

B1: H1H284P (antibody, V domains shown)
VH: QVQLVESGGGVVQPGRSLRLSCAASGFTFSSYGMHWVRQAPGKGLEWMAVISFDGGNKNNADSVKGRFTISRDNSKNTLYLQMNSLRAEDTAVYYCAKEGDRSGHPYFYYYGLDVWGQGTTVTVS
VL: DIQLTQSPSFLSASVGDRVTITCWASQGISSYLAWYQQKPGKAPKLLIYAASTLQSGVPSRFSGSGSETEFTLTISSLQPEDFATYYCQQLHSYPLTFGGGTKVEIK
notes: also called entire H1H284 mAb; Full mAb
B2: H1H268P (antibody, V domains shown)
VH: QVQLQESGAGLLKPSETLSLTCTVYGGSFSIHHWTWIRHPPGKGLEWIGEINHRGSTNYNPSLKSRVTISIDTSKNQFSLKLSAVTAADTAVYYCARGLRFLDWLSSYFDYWGQGTLVTVSS
VL: DIQMTQSPSSLSASVGDRVTITCRASQGISDYLAWYQQKPGKVPNLLIYAASALQSGVPSRFSGSGSGTDFTLTISSLQPEDVATYYCQNYNTAPLTFGGGTKVEIK
notes: also called entire H1H268 mAb; Full mAb

Key:
[1] = target: T1, full-length hANGPTL4 (amino acid …); assay: cell-based or functional assay
[2] = target: T2, amino acid residues 26-148 of human …; assay: cell-based or functional assay
[3] = target: T3, cynomolgus monkey ANGPTL4 N-terminal …; assay: cell-based or functional assay
[4] = target: T1, full-length hANGPTL4 (amino acid …); assay: cell-based or functional assay; remark: listed apart in the source
[5] = target: T2, amino acid residues 26-148 of human …; assay: cell-based or functional assay
[6] = target: T2, amino acid residues 26-148 of human …; assay: SPR (Biacore T100), hANGPTL4-mFc captured by anti-mouse IgG, antibody injected, 37° C.
Method: (§1) Antigen-antibody binding and dissociation were monitored in real time at 25° C. and 37° C. Kinetic analysis was performed to calculate KD and half-life of antigen/antibody complex dissociation.

[7] = target: T1, full-length hANGPTL4 (amino acid …); assay: SPR (Biacore), 25° C., pH 5.75, antigen amino-coupled 450 RU
Method: (§2) Kinetic analysis was performed to measure kₐ and kd, and KD values and half-life of antigen/antibody complex dissociation were calculated. The results are shown in Table 4 (H1H268P) and Table 5 (H1H284P).

[8] = target: T4, cynomolgus monkey ANGPTL4 N-terminal …; assay: SPR (Biacore), 25° C., pH 5.75, antigen amino-coupled 1,028 RU; Full mAb, not Fab; pH 5.75
Method: as §2

[9] = target: T2, amino acid residues 26-148 of human …; assay: SPR (Biacore T100), hANGPTL4-mFc captured by anti-mouse IgG, antibody injected, 25° C.
Method: as §1

[10] = target: T2, amino acid residues 26-148 of human …; assay: SPR (Biacore), 25° C., pH 7.2, antigen captured by anti-mFc
Method: as §2

[11] = target: T4, cynomolgus monkey ANGPTL4 N-terminal …; assay: SPR (Biacore), 25° C., pH 5.75, antigen amino-coupled 1,028 RU
Method: as §2

[12] = target: T1, full-length hANGPTL4 (amino acid …); assay: cell-based or functional assay; remark: listed apart in the source
[13] = target: T2, amino acid residues 26-148 of human …; assay: cell-based or functional assay
[14] = target: T2, amino acid residues 26-148 of human …; assay: SPR (Biacore), 25° C., pH 5.75, antigen captured by anti-mFc
Method: as §2

| IC50 (nM) in the LPL bioassay, constant ANGPTL4 10 nM [1] | IC50 (nM) in the LPL bioassay, constant ANGPTL4 2 nM [2] | IC50 (nM) in the LPL bioassay, constant ANGPTL4 10 nM [3] | IC50, antibody concentration required for 50% maximum inhibition of 10 nM hANGPTL4-His (LPL lipase test) [4] | IC50, antibody concentration required for 50% maximum inhibition of 2 nM hANGPTL4-mFc (LPL lipase test) [5] | Kd [6] | t1/2 [6] | Kd [7] | koff [7] | kon [7] | t1/2 [7] | Kd [8] | Kd [9] | t1/2 [9] | Kd [10] | koff [10] | kon [10] | t1/2 [10] | t1/2 [11] | IC50 (nM) in the LPL inhibition assay, constant ANGPTL4 10 nM [12] | further results | Binder |
| --- | --- | --- | --- | --- | --- | --- | --- | --- | --- | --- | --- | --- | --- | --- | --- | --- | --- | --- | --- | --- | --- |
| 0.31 nM | 0.51 nM | 0.42 nM | 0.5 nM | 0.8 nM | 0.349 nM | 1.35 h | 0.141 nM | 0.000272 s⁻¹ | 1.93e+06 M⁻¹ s⁻¹ | 0.7 h | 0.0543 nM | 0.168 nM | 2.7 h | 0.196 nM | 5.36e-05 s⁻¹ | 274000 M⁻¹ s⁻¹ | 3.6 h | 2.28 h | 0.42 nM | koff [11]: 8.42e-05 s⁻¹; kon [11]: 1.55e+06 M⁻¹ s⁻¹; IC50 (nM) in the LPL inhibition assay, constant ANGPTL4 2 nM [13]: 0.33 nM; Kd [14]: 0.0819 nM; koff [14]: 8.91e-05 s⁻¹; kon [14]: 1.09e+06 M⁻¹ s⁻¹; t1/2 [14]: 2.17 h | B1 |
| 0.46 nM | 0.47 nM | 0.42 nM | 0.2 nM | 1.2 nM | 0.389 nM | 0.95 h | 0.483 nM | 0.000446 s⁻¹ | 923000 M⁻¹ s⁻¹ | 0.433 h | 0.0772 nM | 0.275 nM | 1.33 h | 0.629 nM | 9.59e-05 s⁻¹ | 153000 M⁻¹ s⁻¹ | 2 h | 2.33 h | 0.2 nM | koff [8]: 8.24e-05 s⁻¹; kon [8]: 1.07e+06 M⁻¹ s⁻¹; IC50 (nM) in the LPL inhibition assay, constant ANGPTL4 2 nM [13]: 0.67 nM; Kd [14]: 0.22 nM; koff [14]: 0.000138 s⁻¹; kon [14]: 628000 M⁻¹ s⁻¹; t1/2 [14]: 1.4 h | B2 |
